A word on the Kd: it is the constant that tells how readily two partners part at equilibrium. Read a low Kd as tighter binding.

Assay [1] addresses T1, human serum albumin (human, UniProt P02768 25-609).
T1 construct: also called HSA
In words: SPR, single cycle kinetics, pH 5.5.

In assay [2] the target is T2, rhesus serum albumin (rhesus, UniProt Q28522 17-600).
T2 construct: also called RhSA
In words: SPR, single cycle kinetics, pH 5.5. (In general: Surface plasmon resonance follows binding to a sensor surface in real time, without labels.)

The target of assay [3] is T1, human serum albumin. In words: SPR, single cycle kinetics, pH 7.4.
Assay [4] deals with T2, rhesus serum albumin. In words: SPR, single cycle kinetics, pH 7.4.
The target in assay [5] is T1, human serum albumin. In words: SPR, single cycle kinetics, pH 5.5. This is another data set of the same source.
For assay [6], the target named is T2, rhesus serum albumin. In words: SPR, single cycle kinetics, pH 5.5. The source holds these as a separate data set.
The target in assay [7] is T1, human serum albumin. In words: SPR, single cycle kinetics, pH 7.4. This is another data set of the same source.
Assay [8] concerns the target T2, rhesus serum albumin. Briefly: SPR, single cycle kinetics, pH 7.4. The source holds these as a separate data set.
The target of assay [9] is T3, rat serum albumin (rat, UniProt P02770 25-608).
T3 construct: also called RSA
In words: SPR, single cycle kinetics, pH 7.4.

In assay [10] the target is T3, rat serum albumin. In words: SPR, single cycle kinetics, pH 5.5.
Assay [11] addresses T1, human serum albumin. In words: SPR, single-concentration injection over an HSA surface.

Residue numbers refer to the chain shown, from its start.

B1: H18 sdAb (VHH)
VHH: QVQLVESGGGLVQAGGSLRLSCTASGSIESINRMAWYRQAPGQQREFVARISKGGSTNYPDSVKGRFTISRDNAKNTVYLQMNSLKPEDTAVYYCAAGPVWEQFWGQGTQVTVSS
notes: also called H18 VHH
For B1, the Kd with human serum albumin [1] came to 46 nM; in the assay with rhesus serum albumin [2], 42 nM; with human serum albumin [3] it was 34 nM; with rhesus serum albumin [4] it was 48 nM; with human serum albumin [5], 46.2 nM; with rhesus serum albumin [6] it was 42.2 nM. Also, the Kd with human serum albumin [7] is 33.9 nM; with rhesus serum albumin [8], 47.6 nM. In the assay with rat serum albumin [9], the binding result is “no binding”.

B2: M79-H4 (VHH)
VHH: QVQLVESGGGLVQPGGSLRLSCAASGSTFSSSSVGWYRQAPGQQRELVAAITSGGSTNTADSVKGRFTISRDNSKNTLYLQMNSLRAEDTAVYYCNVAGRNWVPISRYSPGPYWGQGTLVTVSS
As for B2, the Kd was 8.4 nM in the assay with human serum albumin [5]; 2.9 nM with rhesus serum albumin [6]; 8.8 nM with rat serum albumin [10]; 58.9 nM in the assay with human serum albumin [7]; 38.7 nM with rhesus serum albumin [8]; 10 nM in the assay with rat serum albumin [9].

B3: M79-H2 (VHH)
VHH: B2 VHH with Q1E, Q43K, Q44G, R45L, A49S
Regarding B3, the dissociation constant (Kd) was determined as 6.5 nM with human serum albumin [5]; 2.6 nM with rhesus serum albumin [6]; 5.9 nM with rat serum albumin [10]; 76.2 nM in the assay with human serum albumin [7]; 62.1 nM with rhesus serum albumin [8]; 10.4 nM with rat serum albumin [9].

B4: M79-H5 (VHH)
VHH: B2 VHH with S74A, L78V
On to B4, for which the Kd with human serum albumin [5] amounted to 8.1 nM; in the assay with rhesus serum albumin [6], 4.2 nM; with rat serum albumin [10], 6.6 nM; with human serum albumin [7], 103 nM; with rhesus serum albumin [8] it was 86.5 nM; with rat serum albumin [9], 20.2 nM.

B5: M79-H3 (VHH)
VHH: B2 VHH with Q1E, Q43K, A49S
For B5, the Kd with human serum albumin [5] was found to be 9.6 nM; in the assay with rhesus serum albumin [6], 2.9 nM; in the assay with rat serum albumin [10], 12.2 nM; with human serum albumin [7], 53.3 nM; with rhesus serum albumin [8], 36.7 nM; with rat serum albumin [9], 8.7 nM.

B6: Rh46 sdAb (VHH)
VHH: QVKLEESGGGLVQAGGSLRLSCTASTRTFSSYIMGWFRQAPGKERELVAAISWSGRMTHYADSVKGRFAISRDNAKNTVYLQMNVLKPEDTAIYSCAADRTTAWGAPRSQYDSWGQGTQVTVSS
notes: also called Rh46 VHH
With B6, the Kd in the assay with human serum albumin [1] was found to be 41 nM; in the assay with rhesus serum albumin [2], 30 nM; in the assay with human serum albumin [3], 80 nM; with rhesus serum albumin [4] it was 81 nM; in the assay with human serum albumin [5], 41.3 nM; with rhesus serum albumin [6] it was 29.6 nM. The dissociation constant (Kd) with human serum albumin [7] was 80.1 nM; in the assay with rhesus serum albumin [8], 80.8 nM. The binding result with rat serum albumin [9] is recorded as “no binding”.

B7: R28-H5 (VHH)
VHH: QVQLVESGGGLVQPGGSLRLSCAASGRTFIAYAMGWFRQAPGKEREFVAAITNFAGGTTYYADSVKGRFTISRDNAKTTVYLQMNSLRAEDTAVYYCAADRSAQTMRQVRPVLPYWGQGTLVTVSS
Consider B7, for which the Kd with human serum albumin [5] turned out to be 2 nM; with rhesus serum albumin [6] it was 7.3 nM; with rat serum albumin [10], 3.5 nM; in the assay with human serum albumin [7], 11.1 nM; in the assay with rhesus serum albumin [8], 145 nM; with rat serum albumin [9] it was 0.4 nM.

B8: R28-H1 (VHH)
VHH: B7 VHH with Q1E, E44G, R45L, A49S, A76S, T78N, V80L
As for B8, the Kd with human serum albumin [5] was 15.2 nM; with rhesus serum albumin [6], 28.7 nM; in the assay with rat serum albumin [10], 6.5 nM; with human serum albumin [7] it was 162 nM; with rhesus serum albumin [8], 2710 nM; in the assay with rat serum albumin [9] it was 5.3 nM.

B9: B39 (VHH, not shown: small tags and cut ends)
VHH: QVQLVESGGGLVQAGGSLRLSCAASGLTFSRYVMGWFRQAPGKEREFVAAITWGGTPNYADSVKGRFTISRDNSKNTQYLQMNSLKPEDTAVYYCAAGLGWDSRYSQSYNYWGQGTQVTVSS
notes: also called B39-HA-His6; B39 control
With B9, the binding result in the assay with human serum albumin [11] was “no binding (tested: not printed (single concentration))”.

B10: B39-M75 (bispecific antibody, not shown: small tags and cut ends)
chain: QVQLVESGGGLVQAGGSLRLSCAASGLTFSRYVMGWFRQAPGKEREFVAAITWGGTPNYADSVKGRFTISRDNSKNTQYLQMNSLKPEDTAVYYCAAGLGWDSRYSQSYNYWGQGTQVTVSSGGGGSGGGGSGGGGSGGGGSGGGGSQVQLVESGGGFVQAGGSLRLSCAASGRTFDNYVMAWFRQAPGKEREFVASISGSGSITNYANSVKDRFTISRDSAKNAIYLQMNSLKPEDTALYYCAAGSRRTYYREPKFYPSWGQGTQVTVSS
Regarding B10, the binding result in the assay with human serum albumin [11] is “binds”.

B11: B39-M79 (bispecific antibody, not shown: small tags and cut ends)
chain: QVQLVESGGGLVQAGGSLRLSCAASGLTFSRYVMGWFRQAPGKEREFVAAITWGGTPNYADSVKGRFTISRDNSKNTQYLQMNSLKPEDTAVYYCAAGLGWDSRYSQSYNYWGQGTQVTVSSGGGGSGGGGSGGGGSGGGGSGGGGSQVKLEESGGGLVQAGGSLKLSCAASGSTFSSSSVGWYRQAPGQQRELVAAITSGGSTNTADSVKGRFTMSRDNAKNTVYLQMRDLKPEDTAVYYCNVAGRNWVPISRYSPGPYWGQGTQVTVSS
For the molecule B11, in the assay with human serum albumin [11], the binding result is “binds”.

B12: B39-R11 (bispecific antibody, not shown: small tags and cut ends)
chain: QVQLVESGGGLVQAGGSLRLSCAASGLTFSRYVMGWFRQAPGKEREFVAAITWGGTPNYADSVKGRFTISRDNSKNTQYLQMNSLKPEDTAVYYCAAGLGWDSRYSQSYNYWGQGTQVTVSSGGGGSGGGGSGGGGSGGGGSGGGGSQVKLEESGGGLVQAGGSLRLSCVGPGFLLRSNTMGWYRQAPGKERELVAFIRPSGLTNYNDAVQGRFTISRDNAKNTVYLQMNALKPEDTAVYYCHTRPPFQRDSWGQGTQVTVSS
Take B12: the binding result with human serum albumin [11] was “binds”.

B13: Rh34 sdAb (VHH)
VHH: QVKLEESGGGLVQAGGSLRLSCAASGRTISLYAVGWFRRAPGKEREFVAAISWTDSSTYYADSVKGRFTISRDNAKNTVYLGMNSLNPEDTAVYYCAADVSIRGLQKYEYDYWGQGTQVTVSS
notes: also called Rh34 VHH
Consider B13, for which the Kd in the assay with human serum albumin [1] turned out to be 129 nM; in the assay with rhesus serum albumin [2], 167 nM; with human serum albumin [3], 286 nM; in the assay with rhesus serum albumin [4], 333 nM; with human serum albumin [5] it was 129 nM; in the assay with rhesus serum albumin [6], 167 nM. Moreover, the figures for the Kd with human serum albumin [7] and with rhesus serum albumin [8] were 286 nM and 333 nM, respectively. In addition, the binding result in the assay with rat serum albumin [9] was “no binding”.

B14: B39-R28 (bispecific antibody, not shown: small tags and cut ends)
chain: QVQLVESGGGLVQAGGSLRLSCAASGLTFSRYVMGWFRQAPGKEREFVAAITWGGTPNYADSVKGRFTISRDNSKNTQYLQMNSLKPEDTAVYYCAAGLGWDSRYSQSYNYWGQGTQVTVSSGGGGSGGGGSGGGGSGGGGSGGGGSQVQLVESGGGLVQAGGSLRLSCVASGRTFIAYAMGWFRQAPGKEREFVAAITNFAGGTTYYADSVKGRFTISRDNAKTTVYLQMNSLKPEDTALYYCAADRSAQTMRQVRPVLPYWGQGTQVTVSS
For the molecule B14, the binding result with human serum albumin [11] is recorded as “binds”.

The values above are taken from patent publication US20210253679A1 (NATIONAL RESEARCH COUNCIL OF CANADA, published 2021).
